The source of these data is US20080089862.

The series deals with engineered beta-galactosidase reporter protein with the NS3-cleavable NS5A/B site between residues 2.

For “MBP-scNS3mut (inactive mutant S-1165-A NS3)”, the β-galactosidase units (ONPG hydrolysis, Miller units), pMGT15 was 160 Miller units.

For the substance “MBP-scNS3 (E. coli maltose binding protein fused to the NS4A peptide followed by the NS3 protease domain)”, the β-galactosidase units (ONPG hydrolysis, Miller units), pEB13-lacZ-NS5A/B + pMALc-NN-scNS3 came out at 20 Miller units and the β-galactosidase units (ONPG hydrolysis, Miller units), pMGT14 came to 60 Miller units.
